The values that follow come from article doi:10.1101/2025.03.14.643404 (2025).

Assay [1] addresses T1, BCL6^BTB (residues 5-129; C8Q, C67R, C84N), tags cleaved (pSG219C) (human, UniProt P41182 5-129, C8Q | C67R | C84N). As to the kind of experiment: ITC; p300 binding to BCL6:TCIP3 binary complex (ternary, alpha 3.5).
For assay [2], the target named is T1, BCL6^BTB (residues 5-129; C8Q, C67R, …). As to the kind of experiment: ITC; BCL6 binding to p300:TCIP3 binary complex (ternary, alpha 13).

B1: 6xHis-p300^BD (p300 bromodomain) (domain or fragment)
chain: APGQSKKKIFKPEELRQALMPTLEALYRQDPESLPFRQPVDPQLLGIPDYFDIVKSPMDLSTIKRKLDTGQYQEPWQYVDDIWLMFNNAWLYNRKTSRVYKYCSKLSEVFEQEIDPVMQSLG
As for B1, the Kd in assay [1] is 2.37 nM; in assay [2], 19.8 nM.
